Results reported in article doi:10.1101/2023.08.15.553295 (bioRxiv, 2023).
Ends that are not written are not given here.

Experiments:
HaloTag-DCAF12 wild type = HaloTag-DCAF12 wild type (human, UniProt Q5T6F0 1-453); test: FRET or BRET
DCAF12 (Δ1-78) [1] = target: T1, DCAF12 (Δ1-78) (human, UniProt Q5T6F0 79-453); test: fluorescence polarisation
[2] = target: biotinylated DCAF12 (Δ1-78) (human, UniProt Q5T6F0 79-453, biotin); test: SPR
DCAF12 (Δ1-78) [3] = target: T1, DCAF12 (Δ1-78); test: fluorescence polarisation; remark: listed apart in the source

T1 sequence (Q5T6F0 79-453, stated change not applied): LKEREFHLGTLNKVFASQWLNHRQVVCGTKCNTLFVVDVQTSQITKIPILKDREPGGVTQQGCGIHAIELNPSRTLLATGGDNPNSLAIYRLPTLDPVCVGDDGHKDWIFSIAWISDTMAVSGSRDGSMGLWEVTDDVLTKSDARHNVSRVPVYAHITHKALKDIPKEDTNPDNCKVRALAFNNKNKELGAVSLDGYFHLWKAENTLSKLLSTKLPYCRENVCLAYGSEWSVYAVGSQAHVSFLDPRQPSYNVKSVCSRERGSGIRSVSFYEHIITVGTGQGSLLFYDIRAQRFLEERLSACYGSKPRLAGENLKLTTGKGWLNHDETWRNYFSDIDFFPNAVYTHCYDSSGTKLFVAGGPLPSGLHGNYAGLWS
Chain of biotinylated DCAF12 (Δ1-78) (Q5T6F0 79-453, stated change not applied): as above
Chain of HaloTag-DCAF12 wild type (Q5T6F0 whole entry): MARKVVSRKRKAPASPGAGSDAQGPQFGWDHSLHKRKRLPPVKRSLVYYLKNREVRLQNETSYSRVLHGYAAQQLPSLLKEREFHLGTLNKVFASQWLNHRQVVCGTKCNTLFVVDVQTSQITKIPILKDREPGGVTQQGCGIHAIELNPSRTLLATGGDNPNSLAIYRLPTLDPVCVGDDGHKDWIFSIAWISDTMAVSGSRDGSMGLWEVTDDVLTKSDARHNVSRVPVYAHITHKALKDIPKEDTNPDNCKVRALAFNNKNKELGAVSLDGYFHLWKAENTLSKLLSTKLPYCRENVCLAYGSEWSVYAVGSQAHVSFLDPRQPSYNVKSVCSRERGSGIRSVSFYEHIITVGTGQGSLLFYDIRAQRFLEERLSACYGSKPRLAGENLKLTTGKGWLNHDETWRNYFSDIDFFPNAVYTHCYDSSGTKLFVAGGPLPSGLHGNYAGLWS

B1: NanoLuc-MAGEA3 full length (natural protein)
chain: MPLEQRSQHCKPEEGLEARGEALGLVGAQAPATEEQEAASSSSTLVEVTLGEVPAAESPDPPQSPQGASSLPTTMNYPLWSQSYEDSSNQEEEGPSTFPDLESEFQAALSRKVAELVHFLLLKYRAREPVTKAEMLGSVVGNWQYFFPVIFSKASSSLQLVFGIELMEVDPIGHLYIFATCLGLSYDGLLGDNQIMPKAGLLIIVLAIIAREGDCAPEEKIWEELSVLEVFEGREDSILGDPKKLLTQHFVQENYLEYRQVPGSDPACYEFLWGPRALVETSYVKVLHHMVKISGGPHISYPPLHEWVLREGEE
Q: For B1, which “BRET signal, fold over the negative control” value (HaloTag-DCAF12 wild type) is on record?
A: 22 fold

B2: unlabeled CCT5 C-terminal degron peptide (peptide)
peptide: IRKPGESEE
Q: What does the source list for B2?
A: binding result (DCAF12 (Δ1-78) [1]): binds; binding result [2]: binds

B3: FITC-labeled CCT5 C-terminal degron peptide (peptide)
peptide: IRKPGESEE
modifications: also: FITC label, position not given here
Q: For B3, which Kd (DCAF12 (Δ1-78) [3]) is on record?
A: < 370 nM

B4: unlabeled MAGEA3 C-terminal degron peptide (peptide)
peptide: LHEWVLREGEE
Q: What does the source list for B4?
A: binding result (DCAF12 (Δ1-78) [1]): binds; binding result [2]: binds

B5: FITC-labeled MAGEA3 C-terminal degron peptide (peptide)
peptide: LHEWVLREGEE
modifications: also: FITC label, position not given here
Q: With B5 as the binder, how does the Kd (DCAF12 (Δ1-78) [3]) read?
A: < 370 nM
